Our source for the stoichiometry N values is publication PMC11993637.

What is called stoichiometry N is a count of units in the complex or per binding partner.

This test has as its target human hormone-sensitive lipase (HSL), adipocyte isoform (human). Briefly: cryo-EM structure.

For the substance “human hormone-sensitive lipase (HSL), adipocyte isoform (enzyme)”, the stoichiometry N came to 2.
